{"source": "paper PMC3357956", "about": "(Nature structural & molecular biology, 2011)", "target": "the molecule itself", "experiment": "thioflavin T fluorescence"}
{"protein": "QGGFGNSRGGGAGLGNNQGSNMGGGMNFGAFSINPAMMAAAQAALQ (peptide, UniProt Q13148 286-331, looked up)", "note": "[wild-type TDP46mer (synthetic TDP-43 peptide Gln286-Gln331)]", "values": [{"measurement": "binding result", "value": "binds"}]}
